The target of assay [1] is Augmin-GFP (purified mitotic Augmin complex) (Drosophila | Drosophila (endogenous in embryos)) (UniProt Q9W0G7). The assay is described as follows: fluorescence microscopy of junctions between microtubules loaded with purified complexes; as the junction assay, but with HiLyte 647-labelled GMPCPP MT seeds (1:10) to mark the minus ends.
Assay [2] has the same target. The assay can be described thus: fluorescence microscopy of junctions between microtubules loaded with purified complexes; taxol-stabilised Rhodamine-MTs incubated with γ-TuRC-GFP and HiLyte Fluor 488-MTs incubated with Augmin-GFP, each pelleted through 15% glycerol, mixed 1:1 for 10 min at room temperature, fixed and ….
Assay [3] shares this target.

“γ-TuRC-GFP (purified mitotic γ-Tubulin Ring Complex) (from UniProt P42271 1-457; P42271 1-457)”: the percent of γ-TuRC-RhodMTs generating branches on Augmin-488MTs in assay [1] was found to be 64%. For the same substance, the percent of γ-TuRC-containing RhodMTs that terminate at an Augmin-containing 488MT in assay [2] was 55%. This substance had a x50 (time at which 50% of Tubulin polymerisation was achieved) with Augmin-GFP added to γ-TuRC-GFP; γ-TuRC-GFP alone 16.5 mins, control 31.5mins in assay [3] of 9.5 min.

The values are drawn from PMC6959987.
